The experiment has as its target Lectin-like protein 1 (Llp1), residues 23-241, without the signal peptide (Ustilago maydis). The experiment can be described thus: SEC-MALS; Superdex 200 Increase 10/300, HEPES buffer, pH 7.5. Background: In gel filtration, larger molecules generally elute earlier.

One may read the stoichiometry N as the number of molecules, sites or subunits per partner or assembly. “Lectin-like protein 1 (Llp1), residues 23-241, without the signal peptide (from UniProt A0A0D1E6R1 23-241) (domain or fragment)”: the stoichiometry N is 4.
